For assay [1], the target named is T1, human CD3 on human T cells (human, UniProt P07766 23-207). Description: cell-based or functional assay.
Assay [2] has as its target T1, human CD3 on human T cells. As to the kind of experiment: flow cytometry on human primary T cells.
In assay [3] the target is T2, His-labeled human CD3E (human, UniProt P07766 23-126).
T2 construct: also called human CD3E antigen; antigen CD3E; not shown: His label
Description: ELISA, plate coated with His-labeled human CD3E. As to the method: (§1) A microtiter plate was coated with 0.1 μg/mL His-labeled human or cynomolgus monkey CD3E (purchased from Acro Biosystems) (100 μL/well) overnight at 4° C. The coating solution was discarded, and the microtiter plate was blocked with 1% PBSB (200 μL/well), incubated for 1 h at 37° C. and washed with PBS containing 0.05% Tween-20. The diluted CD3 humanized antibodies AB611 and AB614 with a series of concentrations were added (100 μL/well), incubated for 1 h at 37° C. and washed with 0.05% PBST, and HRP-labeled goat anti-human IgG (H+L) (Jackson Laboratory) was added as the detection antibody and incubated for 1 h at 37° C. The wells were washed three times with 0.05% PBST, added with TMB (100 μL/well) and developed at room temperature for 5 min. 0.2 M H₂SO₄ was added to terminate the reaction, 50 μL/well. Absorption values were read by a microplate reader at double wavelengths 450 nm/620 nm. Plotting was performed by software GraphPad Prism 6 with OD 450 nm/620 nm as the Y-axis and an antibody concentration as the X-axis.
(ELISA stands for enzyme-linked immunosorbent assay.)

Assay [4] addresses T3, His-labeled cynomolgus monkey CD3E (purchased from Acro Biosystems) (cynomolgus monkey, UniProt Q95LI5 22-117).
T3 construct: also called Cynomolgus monkey CD3E antigen; not shown: His label
T3 sequence (looked up): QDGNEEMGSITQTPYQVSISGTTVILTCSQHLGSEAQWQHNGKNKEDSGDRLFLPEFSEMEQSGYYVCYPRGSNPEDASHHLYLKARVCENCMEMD
Description: ELISA, plate coated with His-labeled cynomolgus monkey CD3E. As to the method: as §1

In assay [5] the target is T2, His-labeled human CD3E. Description: BLI (Octet), method of Example 3: His-labeled human CD3E on Ni-NTA sensors. On the procedure:
(§2) The binding affinity constants of the purified murine monoclonal antibodies to antigen CD3E were determined by […] (BLI) with the ForteBio Octet RED&QK system from PALL Corporation. Concentration gradients of a multichannel parallel quantitative analysis were set to 3.125, 6.25, 12.5, 25, 50 and 100 nM, and His-labeled human CD3E (10 μg/mL) was coupled to Ni-NTA sensors.
For example, the experimental method for determining the kinetic constants and affinity equilibrium dissociation constants of the humanized antibodies was as described in Example 3.
(In general: BLI is a label-free optical method that tracks binding on a fibre tip over time.)

Assay [6] deals with T4, human CD3E (purchased from Acro Biosystems) (human, UniProt P07766 23-126).
T4 construct: also called human CD3 antigen; human CD3E molecules
T4 sequence (P07766 23-126 limits assumed): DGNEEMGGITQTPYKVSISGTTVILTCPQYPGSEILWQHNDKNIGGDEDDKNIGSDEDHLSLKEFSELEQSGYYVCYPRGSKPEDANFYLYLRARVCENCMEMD
As to the kind of experiment: ELISA, plate coated with human CD3E. As to the method: A microtiter plate was coated with 100 μL of 0.1 μg/mL human CD3E (purchased from Acro Biosystems) overnight at room temperature. The coating solution was discarded, and the wells were blocked with skimmed milk dissolved in phosphate buffered saline (PBS) for 0.5 hours and washed with PBS containing 0.05% Tween-20 (PBST). Then the purified murine antibodies AP191, AP591 and AP831 against human CD3 were added with 50 μL per well and incubated for 1 h at room temperature. The wells were washed with 0.05% PBST. Then 50 μL of HRP-labeled goat anti-mouse IgG polyclonal antibody (purchased from Jackson Laboratory) was added per well as the detected antibody and incubated for 1 h at 37° C. The wells were washed three times with 0.05% PBST, added with TMB (100 μL/well) and developed at room temperature for 5 min. 0.2 M H₂SO₄ was added to terminate the reaction, 50 μL/well. Absorption values were read by a microplate reader at double wavelengths 450 nm/620 nm. Plotting was performed by software GraphPad Prism 6 with OD 450 nm/620 nm as the Y-axis and an antibody concentration as the X-axis.

The target of assay [7] is T2, His-labeled human CD3E. As to the kind of experiment: BLI (Octet), His-labeled human CD3E on Ni-NTA sensors, antibody 3.125-100 nM. As to the method: as §2

T2 sequence (P07766 23-126): as the sequence (P07766 23-126 limits assumed) above
T1 sequence (P07766 23-207): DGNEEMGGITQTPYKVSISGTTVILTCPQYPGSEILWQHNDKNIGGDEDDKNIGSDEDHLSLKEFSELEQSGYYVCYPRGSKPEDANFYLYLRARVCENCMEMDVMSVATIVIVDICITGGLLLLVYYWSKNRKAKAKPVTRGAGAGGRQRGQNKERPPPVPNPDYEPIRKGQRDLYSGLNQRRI

B1: humanized antibody AB614 (antibody, human IgG4 S228P, kappa, V domains shown)
VH: EVQLLESGGGLVQPGGSLKLSCAASGFTFNTYAMNWVRQAPGKGLEWVGRIRSKINNYATYYADSVKDRFTISRDDSKNTAYLQMNNLKTEDTAMYYCVRHDNFYGSTYSWFADWGQGTLVTVSS
VL: ELVVTQEPSLTVSPGGTVTLTCRSSTGVVTTSNYANWVQEKPDHLFTGLIGATNYRAPGTPARFSGSLLGGKAALTLSGVQPEDEAIYFCVLWYSNHWVFGGGTKLTVLR
notes: Humanized from AP591 CDRs
For orientation: EC50 means the midpoint of the concentration-response curve. In general, Kd refers to the constant that tells how readily two partners part at equilibrium. As a reminder, the koff is the first-order rate constant of dissociation. The kon is the second-order rate constant of association. B1: the “EC50 of activating T cells (luciferase of NFAT RE reporter Jurkat T cells)” value in assay [1] turned out to be 0.142 nM. The concentration giving a half-maximal response (EC50) in assay [2] worked out at 1.18 nM; in the assay with His-labeled human CD3E [3], 9.13 pM; in assay [4] it was 7.55 pM. The molecule also registered a dissociation constant Kd in the assay with His-labeled human CD3E [5] of 0.0196 nM. The molecule further returned a koff with His-labeled human CD3E [5] of 1.45e-05 s⁻¹. In addition, the kon in the assay with His-labeled human CD3E [5] turned out to be 741000 M⁻¹ s⁻¹.

B2: humanized antibody AB611 (antibody, human IgG4 S228P, kappa, V domains shown)
VH: EVQLVQSGAEVKKPGSSVKVSCKASGYTFTNNYIHWVKEKPGQGLEWIGWIYPGDGTTKYNEKFKGKTTLASDKSTNTAYMELSSLRSEDTAIYFCTRNNNYYFDYWGQGTTVTVSS
VL: DIVMTQSPDSLAVSLGERATMNCKSSQSLFNSRTRKNYLAWYQQKPGESPKLLIYWASTRESGVPDRFSGSGSGTDFTLTISSLQAEDVAVYYCKQSFILRTFGGGTKVEIKR
notes: Humanized from AP831 CDRs
In the case of B2, the 50% effective concentration (EC50) in assay [2] worked out at 0.174 nM; with His-labeled human CD3E [3], 8.33 pM; in assay [4], 4.83 pM.

B3: murine monoclonal antibody AP831 (antibody, mouse IgG1, V domains shown)
VH: QVQLQQSGPELVKPGTSVKMSCKASGYTFTNNYIHWVKEKPGEGLEWIGWIYPGDGTTKYNEKFKGKTTLASDKSSNTVYMFLSSLTSEDSAIYFCTRNNNYYFDYWGQGTTLTVSS
VL: DIVMSQSPSSLAVSAGEKVTMNCKSSQSLFNSRTRKNYLAWYQQKPGQSPKLLIYWASTRESGVPDRFTGSGSGTDFTLTISSVQAEDLALYYCKQSFILRTFGGGTKLEIK
Take B3: the figures for the 50% effective concentration (EC50) in assay [6] and in assay [2] were 0.0404 nM and 0.825 nM, respectively. In addition, the kon with His-labeled human CD3E [7] was 692000 M⁻¹ s⁻¹.

Values taken from patent publication US20240317857A1 (AMPSOURCE BIOPHARMA SHANGHAI, published 2024).
